# Source: article PMC11412978
# Molecular target: USP22 (ubiquitin-specific protease 22) (UniProt Q9UPT9)
# Assay: co-IP of myc-MYH9 and Flag-USP22
# Conditions: reference: wild-type MYH9; sites S1943
substance,measurement,value
MYH9 (non-muscle myosin heavy chain 9) (from UniProt P35579) MYH9-S1943A,binding against the reference,lost
